Results: patent publication US20240067747A1 (SHANGHAI HUAOTA BIOPHARMACEUTICAL, published 2024)

Experiments:
[1] = target: T1, human CD73 on the cell surface of CHOK1-huCD73-3F4 cells (Huabo Biopharm) (human, UniProt P21589 27-549); assay: flow cytometry on CHOK1-huCD73-3F4 cells, PE-goat anti-human-Fc
T1 construct: whole, on cells; also called cells expressing human CD73; CD73 on cell membrane
T1 sequence (looked up): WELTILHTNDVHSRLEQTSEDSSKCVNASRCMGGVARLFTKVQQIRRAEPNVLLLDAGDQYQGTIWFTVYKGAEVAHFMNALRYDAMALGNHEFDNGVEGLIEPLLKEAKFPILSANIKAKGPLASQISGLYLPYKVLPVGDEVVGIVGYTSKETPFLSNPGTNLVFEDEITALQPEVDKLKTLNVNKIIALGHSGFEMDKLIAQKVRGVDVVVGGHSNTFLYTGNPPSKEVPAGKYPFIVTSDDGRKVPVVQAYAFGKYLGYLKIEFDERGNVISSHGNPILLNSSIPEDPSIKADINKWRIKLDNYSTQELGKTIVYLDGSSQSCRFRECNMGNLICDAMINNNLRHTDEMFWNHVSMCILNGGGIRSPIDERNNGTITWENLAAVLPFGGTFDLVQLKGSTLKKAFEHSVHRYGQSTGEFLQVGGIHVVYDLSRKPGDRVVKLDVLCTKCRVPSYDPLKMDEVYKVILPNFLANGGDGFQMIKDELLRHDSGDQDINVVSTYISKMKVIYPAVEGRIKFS
Method: All antigen-binding proteins were diluted to 30 μg/ml with 1% BSA in PBS solution (1% BSA/PBS) and then 3-fold diluted for 11 gradients. The diluted antigen-binding proteins were added to a 96-well U-shaped plate at 20 μL per well; and a negative control (with 1% BSA/PBS added only) was set up at the same time. The suspension of cells (CHOK1-huCD73-3F4, Huabo Biopharm) expressing human CD73 during the logarithmic growth phase were centrifuged (1000 rpm×5 min) to discard the culture medium; and the cells were resuspended with 1% BSA/PBS until the density of viable cells was 1×10⁶/mL, and were added, at 20 μL (2×10⁴ cells) per well, to the 96-well U-shaped plate with the […] antigen-binding protein to react for 30 min at room temperature. After reaction, the 96-well U-shaped plate was resuspended with 1% BSA/PBS, centrifuged (300 g×3 min) to discard the supernatant, and washed once in such a way. PE-goat anti-human-Fc (Jackson ImmunoResearch, #109-115098) diluted at 1:200 was added to react for 15 min in the dark at room temperature. After reaction, the 96-well U-shaped plate was resuspended with 1% BSA/PBS, centrifuged (300 g×3 min) to discard the supernatant, washed three times in such a way, and finally resuspended with 100 μL of 1% BSA/PBS for each wall; and the fluorescence intensity of a PE channel was detected with a flow cytometer (BD, #Cantoll).

[2] = target: T1, human CD73 on the cell surface of …; assay: cell-based or functional assay

EC50 [1]: 0.021 µg/mL
EC50 of inhibition of the enzyme activity of CD73 on cell membrane (AMP/ATP, CellTiter-Glo) [2]: 0.0749 µg/mL
B1: 900567 (human-mouse chimeric anti-CD73 antigen-binding protein expressed from 124A9 variable regions) (antibody, V domains shown)
VH: QVQLQQPGAELVKPGASVKLSCKASGYTFTSYWIHWVKQRPGQGLDWIGMIHPNSGSTYYNEKFKSKATLTVDKSSSTAYMQLSSLTSEDSAVYYCARYYGSDYEWYFDVWGTGTTVTVSS
VL: DIVMTQSQKFMSTSVGDRVSITCKASQNVRTAVVWYQQNPGQSPKALIYLASNRHTGVPDRFTGSGSGTDFTLTISNVHSEDLADYFCLQHWNYPYTFGGGTKLEIK
